Target: transmembrane tumor necrosis factor (tmTNF) knock-in mutant, on bone-marrow-derived macrophages of 3TG mice (TNFR1-/-, TNFR2-/-, tmTNF KI/KI) (mouse (endogenous in BMDMs)) (UniProt P06804)

With “etanercept, a soluble form of TNFR2 coupled to human Fc domain (from UniProt P20333 23-257) (Fc fusion)” the internalization score of ETA-488 in 3TG BMDMs at 20 min, imaging cytometry was 0.73.

— paper PMC8050384
